# Measured values from patent publication US9289381B2, “Stabilization and storage of biological pharmaceutical compositions” (The University of North Carolina at Charlotte, priority 2009, dated 2016).
# “And” between values parts separate entries of the source, which are not always exact repeats. Equal entries are not always repeated.
# Columns and labels:
# [1] = Microcalorimetry (DSC) of HEWL dispersions stored in 80% w/w CDHP or 0.1M NaOAc; format: physicochemical; parameters: Thermal transition midpoint temperature of HEWL: unit not given here
# Procedure: The samples were formulated in 2 ml silanized glass vials to reduce protein-surface interactions, covered with cap and septa, wrapped with parafilm to ensure no drying out of the sample, and stored away from sunlight. They were stirred for at least 24 hours until a homogeneous distribution of protein was obtained. […] The 35 silanized vials were exposed to UV light for 24 hours to ensure sterility. Control samples at equivalent concentrations were also prepared in triplicates in 0.1M NaOAc buffer (pH 4). Samples were tested for thermal stability via microcalorimetry and functional activity via the micrococcus lysodeikticus assay at monthly intervals.
# A MicroCal VP-DSC microcalorimeter was used to assess thermal structural stability of all samples. Baseline repeatability was established with a minimum of 5 buffer-buffer scans. […] HEWL solutions were tested similarly with no dilution of the samples. Between samples, during the filling period of 15° C. to 25° C., the sample cell of the DSC was flushed with at least 25 ml distilled H2O, then at least 15 ml NaOAc to ensure no sample residue remained behind. Thermal profiles, enthalpy changes, and transition temperatures were obtained with Origin software.
# All formulations were diluted to 0.1-0.5 mg/ml for testing. This allows one to observe how well protein thermal stability and structural integrity is maintained following storage and then dilution into a solution of similar composition as the environment of the body.
# [2] = 350 mg/ml vs 1 mg/ml, aqueous solvent; cited from earlier work
# [3] = Sedimentation analysis of HEWL dispersions (centrifugation, BCA); format: physicochemical; details: HEWL dispersion in 80% w/w CDHP, 75 minutes at 15000 RPM
# Procedure: The presence of any CDHP crystals was also noted. […] Images were taken using SlideBook.
# The second approach to verify these sample compositions was to determine the amount of protein in the dispersed phase after separation of the solid and liquid components by centrifugation. To achieve separation of these components, solutions were centrifuged for 75 minutes at 15000 RPM, about 10% remained in the supernatant. Both the decanted supernatant and the pellet, which was re-suspended in buffer, were analyzed for protein content. It was observed that ˜90% of the formulated protein was contained in the pellet. The remaining about 10% of the formulated protein was found in the supernatant. […] Although the supernatants appeared clear it is possible that there are sub-visible particles of lysozyme in the supernatant that resist sedimentation at this rate.
# [4] = test system: micrococcus lysodeikticus; experiment: Micrococcus lysodeikticus turbidimetric assay of HEWL enzyme activity; format: biochemical; details: formulated in NaOAc compared with 80% w/w CDHP, 10 and 100 mg/ml, 5 months
# [5] = stored at 10 mg/ml in Choline dhp, 1 month
# [6] = stored at 10 mg/ml in Choline dhp, 2 months
# [7] = stored at 10 mg/ml in Choline dhp, 3 months
# [8] = stored at 10 mg/ml in Choline dhp, 4 months
# [9] = stored at 10 mg/ml in Choline dhp, 5 months
# [10] = stored at 100 mg/ml in Choline dhp, 0 months
# [11] = stored at 100 mg/ml in Choline dhp, 1 month
# [12] = stored at 100 mg/ml in Choline dhp, 2 months
# [13] = stored at 100 mg/ml in Choline dhp, 3 months
# [14] = stored at 100 mg/ml in Choline dhp, 4 months
# [15] = stored at 100 mg/ml in Choline dhp, 5 months
substance,measurement,setting,value
"HEWL: hen egg white lysozyme (HEWL), a well characterized protein, purchased from Worthington Biochem",Enthalpy of unfolding of HEWL,[1]; [5],380.46 kJ/mol and 380.14 kJ/mol and 374.93 kJ/mol
same,Thermal transition midpoint temperature of HEWL,[1]; [5],346.7 and 346.62 and 346.75
same,Enthalpy of unfolding of HEWL,[1]; [6],337.95 kJ/mol and 331.52 kJ/mol and 331.01 kJ/mol
same,Thermal transition midpoint temperature of HEWL,[1]; [6],346.84 and 346.81 and 346.39
same,Enthalpy of unfolding of HEWL,[1]; [7],236.98 kJ/mol and 231.07 kJ/mol and 265.34 kJ/mol
same,Thermal transition midpoint temperature of HEWL,[1]; [7],346.98 and 346.52 and 346.35
same,Enthalpy of unfolding of HEWL,[1]; [8],195.48 kJ/mol and 198.15 kJ/mol and 214 kJ/mol
same,Thermal transition midpoint temperature of HEWL,[1]; [8],346.47 and 346.43 and 346.5
same,Enthalpy of unfolding of HEWL,[1]; [9],154.39 kJ/mol and 179.91 kJ/mol
same,Thermal transition midpoint temperature of HEWL,[1]; [9],346.27 and 346.37 and 346.21
same,Thermal transition midpoint temperature of HEWL,"[1]; stored at 10 mg/ml in NaOAc, 0 months",346.68 and 346.77 and 347.14
same,Thermal transition midpoint temperature of HEWL,"[1]; stored at 10 mg/ml in NaOAc, 1 month",345.79 and 345.93 and 345.94
same,Thermal transition midpoint temperature of HEWL,"[1]; stored at 10 mg/ml in NaOAc, 2 months",345.85 and 345.9 and 345.8
same,Thermal transition midpoint temperature of HEWL,"[1]; stored at 10 mg/ml in NaOAc, 3 months",345.72 and 345.9 and 345.48
same,Thermal transition midpoint temperature of HEWL,"[1]; stored at 10 mg/ml in NaOAc, 4 months",345.17 and 345.1 and 345.21
same,Thermal transition midpoint temperature of HEWL,"[1]; stored at 10 mg/ml in NaOAc, 5 months",345.13 and 345.05 and 345.15
same,Enthalpy of unfolding of HEWL,"[1]; stored at 100 mg/ml in 0.1M NaOAc, 0 months",423.17 kJ/mol and 440.157 kJ/mol and 452.709 kJ/mol
same,Enthalpy of unfolding of HEWL,"[1]; stored at 100 mg/ml in 0.1M NaOAc, 1 month",259.45 kJ/mol and 236.86 kJ/mol and 301.14 kJ/mol
same,Enthalpy of unfolding of HEWL,"[1]; stored at 100 mg/ml in 0.1M NaOAc, 2 months",243.97 kJ/mol and 254.63 kJ/mol and 228.99 kJ/mol
same,Enthalpy of unfolding of HEWL,"[1]; stored at 100 mg/ml in 0.1M NaOAc, 3 months",195 kJ/mol and 194.58 kJ/mol and 193.4 kJ/mol
same,Enthalpy of unfolding of HEWL,"[1]; stored at 100 mg/ml in 0.1M NaOAc, 4 months",129.239 kJ/mol and 134.1883 kJ/mol and 124.694 kJ/mol
same,Enthalpy of unfolding of HEWL,"[1]; stored at 100 mg/ml in 0.1M NaOAc, 5 months",112.13 kJ/mol and 121.75 kJ/mol and 99.998 kJ/mol
same,Enthalpy of unfolding of HEWL,[1]; [10],448.106 kJ/mol and 421.329 kJ/mol and 453.127 kJ/mol
same,Thermal transition midpoint temperature of HEWL,[1]; [10],347.45 and 347.05 and 347.11
same,Enthalpy of unfolding of HEWL,[1]; [11],376.43 kJ/mol and 374.91 kJ/mol and 367.67 kJ/mol
same,Thermal transition midpoint temperature of HEWL,[1]; [11],346.41 and 346.54 and 346.44
same,Enthalpy of unfolding of HEWL,[1]; [12],314.35 kJ/mol and 321.43 kJ/mol and 324.44 kJ/mol
same,Thermal transition midpoint temperature of HEWL,[1]; [12],346.42 and 346.43 and 346.47
same,Enthalpy of unfolding of HEWL,[1]; [13],231.1 kJ/mol and 239.63 kJ/mol and 229.7 kJ/mol
same,Thermal transition midpoint temperature of HEWL,[1]; [13],346.39 and 346.37
same,Enthalpy of unfolding of HEWL,[1]; [14],189.24 kJ/mol and 190.709 kJ/mol and 208.01 kJ/mol
same,Thermal transition midpoint temperature of HEWL,[1]; [14],346.3 and 346.35 and 346.37
same,Enthalpy of unfolding of HEWL,[1]; [15],162.76 kJ/mol and 152.3 kJ/mol and 164.43 kJ/mol
same,Thermal transition midpoint temperature of HEWL,[1]; [15],346.29 and 346.02 and 346.35
same,Thermal transition midpoint temperature of HEWL,"[1]; stored at 100 mg/ml in NaOAc, 0 months",346.92 and 346.45 and 347.06
same,Thermal transition midpoint temperature of HEWL,"[1]; stored at 100 mg/ml in NaOAc, 1 month",345.92 and 346.17 and 345.84
same,Thermal transition midpoint temperature of HEWL,"[1]; stored at 100 mg/ml in NaOAc, 2 months",345.78 and 346 and 345.69
same,Thermal transition midpoint temperature of HEWL,"[1]; stored at 100 mg/ml in NaOAc, 3 months",345.79 and 345.9 and 345.66
same,Thermal transition midpoint temperature of HEWL,"[1]; stored at 100 mg/ml in NaOAc, 4 months",345.47 and 345.41 and 345.51
same,Thermal transition midpoint temperature of HEWL,"[1]; stored at 100 mg/ml in NaOAc, 5 months",345.39 and 345.41
same,decrease of thermal transition midpoint temperature at the higher concentration,[2],~5 °C
same,formulated protein contained in the pellet,[3],~90%
same,formulated protein found in the supernatant,[3],about 10%
same,enzyme activity over time,[4],degrades faster
